Laboratory results published in patent publication US20190135872A1.

Assays:
[1] = biological target: BG505 NFL-TD+CC2-D4K_L555P w/rEK (HIV-1 BG505 (clade A)); assay: ELISA, His-captured trimer
[2] = biological target: 16055 NFL-TD+CC2-D4K_L555P w/rEK (HIV-1 16055 (clade C)); assay: ELISA, His-captured trimer
[3] = biological target: 16055 NFL-Q563P (HIV-1 16055 (clade C)); assay: ELISA, His-captured trimer
[4] = biological target: 16055 NFL-L555P (HIV-1 16055 (clade C)); assay: ELISA, His-captured trimer
[5] = biological target: BG505 NFL-TD+CC2-D4K_I559P (HIV-1 BG505 (clade A)); assay: ELISA, His-captured trimer
[6] = biological target: JRFL NFL-CC2 (HIV-1 JRFL (clade B)); assay: ELISA, His-captured trimer
[7] = biological target: BG505 NFL-CC2 (HIV-1 BG505 (clade A)); assay: ELISA, His-captured trimer
[8] = biological target: BG505 NFL-L555P (HIV-1 BG505 (clade A)); assay: ELISA, His-captured trimer
[9] = biological target: 16055 NFL-CC2 (HIV-1 16055 (clade C)); assay: ELISA, His-captured trimer
[10] = biological target: BG505 NFL (I559P) parental (HIV-1 BG505 (clade A)); assay: ELISA, His-captured trimer
[11] = biological target: BG505 NFL-TD+CC2-D4K_L555P (HIV-1 BG505 (clade A)); assay: ELISA, His-captured trimer
[12] = biological target: BG505 NFL-TD+CC2-D4K_I559P w/rEK (HIV-1 BG505 (clade A)); assay: ELISA, His-captured trimer
[13] = biological target: 16055 NFL-TD+CC2-D4K_I559P w/rEK (HIV-1 16055 (clade C)); assay: ELISA, His-captured trimer
[14] = biological target: 16055 NFL-TD+CC2-D4K_L555P (HIV-1 16055 (clade C)); assay: ELISA, His-captured trimer
[15] = biological target: 16055 NFL-TD+CC2-D4K_I559P (HIV-1 16055 (clade C)); assay: ELISA, His-captured trimer
[16] = biological target: 16055 NFL-Q563P (HIV-1 16055 (clade C)); assay: BLI, IgG captured, trimer as analyte
[17] = biological target: 16055 NFL-L555P (HIV-1 16055 (clade C)); assay: BLI, IgG captured, trimer as analyte
[18] = biological target: BG505 NFL-TD+CC2-D4K_I559P (HIV-1 BG505 (clade A)); assay: BLI, IgG captured, trimer as analyte
[19] = biological target: BG505 NFL-CC2 (HIV-1 BG505 (clade A)); assay: BLI, IgG captured, trimer as analyte
[20] = biological target: BG505 NFL-L555P (HIV-1 BG505 (clade A)); assay: BLI, IgG captured, trimer as analyte
[21] = biological target: BG505 NFL-S553P (HIV-1 BG505 (clade A)); assay: BLI, IgG captured, trimer as analyte
[22] = biological target: 16055 NFL (I559P) parental (HIV-1 16055 (clade C)); assay: BLI, IgG captured, trimer as analyte
[23] = biological target: BG505 NFL-Q562P (HIV-1 BG505 (clade A)); assay: BLI, IgG captured, trimer as analyte
[24] = biological target: 16055 NFL-CC2 (HIV-1 16055 (clade C)); assay: BLI, IgG captured, trimer as analyte
[25] = biological target: BG505 NFL-N554P (HIV-1 BG505 (clade A)); assay: BLI, IgG captured, trimer as analyte
[26] = biological target: BG505 NFL (I559P) parental (HIV-1 BG505 (clade A)); assay: BLI, IgG captured, trimer as analyte
[27] = biological target: BG505 NFL-TD+CC2-D4K_L555P (HIV-1 BG505 (clade A)); assay: BLI, IgG captured, trimer as analyte
[28] = biological target: 16055 NFL-Q562P (HIV-1 16055 (clade C)); assay: BLI, IgG captured, trimer as analyte
[29] = biological target: 16055 NFL-TD+CC2-D4K_L555P (HIV-1 16055 (clade C)); assay: BLI, IgG captured, trimer as analyte
[30] = biological target: BG505 NFL-Q563P (HIV-1 BG505 (clade A)); assay: BLI, IgG captured, trimer as analyte
[31] = biological target: 16055 NFL-TD+CC2-D4K_I559P (HIV-1 16055 (clade C)); assay: BLI, IgG captured, trimer as analyte

## PGT145 (antibody)
[1]
  EC50: 0.015 µg/mL
[2]
  EC50: 0.015 µg/mL
[3]
  EC50: 0.013 µg/mL
[4]
  EC50: 0.014 µg/mL
[5]
  EC50: 0.013 µg/mL
[6]
  EC50: 0.012 µg/mL
[7]
  EC50: 0.011 µg/mL
[8]
  EC50: 0.018 µg/mL
[9]
  EC50: 0.013 µg/mL
[10]
  EC50: 0.016 µg/mL
[11]
  EC50: 0.014 µg/mL
[12]
  EC50: 0.016 µg/mL
[13]
  EC50: 0.019 µg/mL
[14]
  EC50: 0.014 µg/mL
[15]
  EC50: 0.015 µg/mL
[16]
  Kd: 1.6 nM
  koff: 0.0005 s⁻¹
  kon: 320000 M⁻¹ s⁻¹
[17]
  Kd: 3.3 nM
  koff: 0.001 s⁻¹
  kon: 310000 M⁻¹ s⁻¹
[18]
  Kd: 16 nM
  koff: 0.0027 s⁻¹
  kon: 170000 M⁻¹ s⁻¹
[19]
  Kd: 21 nM
  koff: 0.0034 s⁻¹
  kon: 160000 M⁻¹ s⁻¹
[20]
  Kd: 2.9 nM
[21]
  Kd: 5 nM
[22]
  Kd: 1.9 nM
[23]
  Kd: 6.2 nM
[24]
  Kd: 16 nM
  koff: 0.004 s⁻¹
  kon: 240000 M⁻¹ s⁻¹
[25]
  Kd: 4.3 nM
[26]
  Kd: 6.2 nM
[27]
  Kd: 19 nM
  koff: 0.0031 s⁻¹
  kon: 170000 M⁻¹ s⁻¹
[28]
  Kd: 2.9 nM
  koff: 0.0009 s⁻¹
  kon: 300000 M⁻¹ s⁻¹
[29]
  Kd: 16 nM
  koff: 0.0035 s⁻¹
  kon: 220000 M⁻¹ s⁻¹
[30]
  Kd: 3.6 nM
[31]
  Kd: 25 nM
  koff: 0.0056 s⁻¹
  kon: 220000 M⁻¹ s⁻¹

## PGT151 (antibody)
[1]
  EC50: 0.085 µg/mL
[2]
  EC50: 0.056 µg/mL
[3]
  EC50: 0.047 µg/mL
[4]
  EC50: 0.048 µg/mL
[5]
  EC50: 0.065 µg/mL
[6]
  EC50: 0.139 µg/mL
[7]
  EC50: 0.059 µg/mL
[8]
  EC50: 0.058 µg/mL
[10]
  EC50: 0.062 µg/mL
[11]
  EC50: 0.073 µg/mL
[12]
  EC50: 0.091 µg/mL
[13]
  EC50: 0.041 µg/mL
[16]
  Kd: 8.9 nM
  koff: 0.0016 s⁻¹
  kon: 180000 M⁻¹ s⁻¹
[17]
  Kd: 5.7 nM
  koff: 0.0008 s⁻¹
  kon: 150000 M⁻¹ s⁻¹
[18]
  Kd: 2.3 nM
  koff: 0.0008 s⁻¹
  kon: 340000 M⁻¹ s⁻¹
[19]
  Kd: 1.9 nM
  koff: 0.0006 s⁻¹
  kon: 290000 M⁻¹ s⁻¹
[20]
  Kd: 1.4 nM
[21]
  Kd: 3.3 nM
[23]
  Kd: 1.9 nM
[24]
  Kd: 21 nM
  koff: 0.0053 s⁻¹
  kon: 250000 M⁻¹ s⁻¹
[25]
  Kd: 1.4 nM
[26]
  Kd: 5.5 nM
[27]
  Kd: 3.7 nM
  koff: 0.0014 s⁻¹
  kon: 370000 M⁻¹ s⁻¹
[28]
  Kd: 9.2 nM
  koff: 0.0016 s⁻¹
  kon: 180000 M⁻¹ s⁻¹
[29]
  Kd: 13 nM
  koff: 0.0055 s⁻¹
  kon: 45000 M⁻¹ s⁻¹
[30]
  Kd: 1.7 nM
[31]
  Kd: 8.7 nM
  koff: 0.0069 s⁻¹
  kon: 790000 M⁻¹ s⁻¹
